# Measured values published in US20200079833A1 (AstraZeneca / MedImmune, published 2020).
# Starred links: 1 amine or outer side, 2 acyl side, 3 side chain; linkers in the order of their positions; H or OH if unused. Non-standard residues stand in square brackets, D forms with d. Groups on a side chain read outwards from the residue. Primed or numbered codes have the meaning given here. No end group written: not given here. *: point of attachment. γGlu = O=C(O)[C@H](CCC(=O)[*:2])N[*:1]; Palmitoyl = CCCCCCCCCCCCCCCC(=O)*; αMeF = C[C@](N)(Cc1ccccc1)C(=O)O; αMeK = C[C@](N)(CCCCN)C(=O)O; Lauroyl = CCCCCCCCCCCC(=O)*; αMeS = C[C@](N)(CO)C(=O)O; PEG2′ = not defined here; Aib = CC(C)(N)C(=O)O
# T1: glucose-dependent insulinotropic peptide (gastric inhibitory polypeptide) receptor (GIPR), primary cAMP assay (human, UniProt P48546 22-466)
# T1 sequence (looked up): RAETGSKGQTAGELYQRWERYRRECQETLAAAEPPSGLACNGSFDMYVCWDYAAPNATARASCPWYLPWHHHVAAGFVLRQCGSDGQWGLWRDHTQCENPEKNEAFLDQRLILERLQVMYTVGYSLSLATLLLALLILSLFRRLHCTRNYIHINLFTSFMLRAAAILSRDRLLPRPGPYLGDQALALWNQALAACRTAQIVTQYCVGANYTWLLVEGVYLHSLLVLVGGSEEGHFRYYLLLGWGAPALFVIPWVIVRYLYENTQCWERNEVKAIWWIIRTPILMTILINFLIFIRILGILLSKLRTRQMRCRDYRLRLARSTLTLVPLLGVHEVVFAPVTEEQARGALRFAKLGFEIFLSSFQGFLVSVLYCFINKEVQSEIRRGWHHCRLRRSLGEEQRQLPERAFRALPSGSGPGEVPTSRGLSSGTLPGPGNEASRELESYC
# T2: GLP-1R in the INS1e assay (UniProt P32301 22-463, limits assumed)
# T2 sequence (looked up): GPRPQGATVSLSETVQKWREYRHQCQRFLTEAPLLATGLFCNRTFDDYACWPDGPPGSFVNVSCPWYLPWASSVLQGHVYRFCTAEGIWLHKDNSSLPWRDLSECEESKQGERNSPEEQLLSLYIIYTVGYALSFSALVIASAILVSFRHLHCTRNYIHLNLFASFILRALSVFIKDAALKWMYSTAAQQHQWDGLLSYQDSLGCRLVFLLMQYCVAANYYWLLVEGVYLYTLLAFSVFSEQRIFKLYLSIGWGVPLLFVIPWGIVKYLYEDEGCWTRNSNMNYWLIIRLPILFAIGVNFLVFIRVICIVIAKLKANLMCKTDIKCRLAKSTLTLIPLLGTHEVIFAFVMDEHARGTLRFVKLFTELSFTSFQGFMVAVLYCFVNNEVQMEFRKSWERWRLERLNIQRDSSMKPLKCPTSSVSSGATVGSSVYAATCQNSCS
# T3: glucose-dependent insulinotropic peptide (gastric inhibitory polypeptide) receptor (GIPR), primary cAMP assay … (human, UniProt P48546 22-466)
# T3 sequence (looked up): T1 sequence (looked up)
# T4: GLP-1R in the INS1e assay (UniProt P32301 22-463, limits assumed)
# T4 sequence (looked up): T2 sequence (looked up)
# Biological target: GLP-1 receptor (GLP-1R), primary cAMP assay (human, UniProt P43220 24-463)
# Assay: cell-based or functional assay
Binder,Primary assay EC50 (cAMP) Mean [pM],"Primary assay EC50 (cAMP), n1 [pM]","Primary assay EC50 (cAMP), n2 [pM]"
H[Aib]EGS[αMeF]TSDV[αMeS]SK([PEG2′-PEG2′-γGlu-Palmitoyl])LEGEAA[αMeK]EFIK([PEG2′-PEG2′-γGlu-Palmitoyl])WVVEGG-NH2 [SEQ ID NO: 265],33.6,39.1,28
H[Aib]EGS[αMeF]TSDV[αMeS]SK([PEG2′-PEG2′-γGlu-Palmitoyl])LEGEAA[αMeK]E[αMeF]IAK([PEG2′-PEG2′-γGlu-Palmitoyl])VVEGG-NH2 [SEQ ID NO: 409],36.1,39.5,32.6
H[Aib]EGS[αMeF]TSDV[αMeS]SYK([PEG2′-PEG2′-γGlu-Lauroyl])EGEAA[αMeK]EFIAK([PEG2′-PEG2′-γGlu-Lauroyl])VVEGG-NH2 [SEQ ID NO: 269],4.6,4.01,5.24

# Continued, values first:
Primary assay EC50 (cAMP) Mean [pM],"Primary assay EC50 (cAMP), n1 [pM]","Primary assay EC50 (cAMP), n2 [pM]",Binder
12.8,18.2,7.37,H[Aib]EGS[αMeF]TSDV[αMeS]SK([PEG2′-PEG2′-γGlu-Lauroyl])LEGEAA[αMeK]EFIAWK([PEG2′-PEG2′-γGlu-Lauroyl])VEGG-NH2 [SEQ ID NO: 264]
4.8,4.46,5.05,H[Aib]EGS[αMeF]TSDV[αMeS]SYK([PEG2′-PEG2′-γGlu-Lauroyl])EGEAA[αMeK]EFIK([PEG2′-PEG2′-γGlu-Lauroyl])WVVEGG-NH2 [SEQ ID NO: 268]

# Biological target: glucagon receptor (GCGR), primary cAMP assay (human, UniProt P47871 26-477)
# Assay: cell-based or functional assay
# Sequence of glucagon receptor (GCGR), primary cAMP assay (P47871 26-477): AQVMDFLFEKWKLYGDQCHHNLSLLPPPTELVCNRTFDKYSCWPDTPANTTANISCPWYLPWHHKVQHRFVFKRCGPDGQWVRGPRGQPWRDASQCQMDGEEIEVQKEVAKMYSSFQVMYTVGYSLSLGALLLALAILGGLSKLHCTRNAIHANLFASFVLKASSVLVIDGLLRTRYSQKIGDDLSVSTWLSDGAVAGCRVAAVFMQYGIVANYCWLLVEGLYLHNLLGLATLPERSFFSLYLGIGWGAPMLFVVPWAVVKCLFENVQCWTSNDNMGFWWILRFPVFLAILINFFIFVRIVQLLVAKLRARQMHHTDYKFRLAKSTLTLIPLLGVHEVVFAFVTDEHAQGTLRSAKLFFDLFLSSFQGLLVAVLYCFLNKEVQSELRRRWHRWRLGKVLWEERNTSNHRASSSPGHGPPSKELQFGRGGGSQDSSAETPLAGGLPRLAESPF
Binder,"Primary assay EC50 (cAMP), n1 [nM]","Primary assay EC50 (cAMP), n2 [nM]"
H[Aib]EGS[αMeF]TSDV[αMeS]SK([PEG2′-PEG2′-γGlu-Palmitoyl])LEGEAA[αMeK]EFIK([PEG2′-PEG2′-γGlu-Palmitoyl])WVVEGG-NH2 [SEQ ID NO: 265],21.6,21.6
H[Aib]EGS[αMeF]TSDV[αMeS]SK([PEG2′-PEG2′-γGlu-Palmitoyl])LEGEAA[αMeK]E[αMeF]IAK([PEG2′-PEG2′-γGlu-Palmitoyl])VVEGG-NH2 [SEQ ID NO: 409],21.5,21.5
H[Aib]EGS[αMeF]TSDV[αMeS]SYK([PEG2′-PEG2′-γGlu-Lauroyl])EGEAA[αMeK]EFIAK([PEG2′-PEG2′-γGlu-Lauroyl])VVEGG-NH2 [SEQ ID NO: 269],22.8,22.8

# Other lines, results leading:
"Primary assay EC50 (cAMP), n1 [nM]","Primary assay EC50 (cAMP), n2 [nM]",Binder
22.6,22.6,H[Aib]EGS[αMeF]TSDV[αMeS]SK([PEG2′-PEG2′-γGlu-Lauroyl])LEGEAA[αMeK]EFIAWK([PEG2′-PEG2′-γGlu-Lauroyl])VEGG-NH2 [SEQ ID NO: 264]
22.2,22.2,H[Aib]EGS[αMeF]TSDV[αMeS]SYK([PEG2′-PEG2′-γGlu-Lauroyl])EGEAA[αMeK]EFIK([PEG2′-PEG2′-γGlu-Lauroyl])WVVEGG-NH2 [SEQ ID NO: 268]

# Biological target: T1, glucose-dependent insulinotropic …
# Assay: cell-based or functional assay
Binder,"Primary assay EC50 (cAMP), n1 [nM]","Primary assay EC50 (cAMP), n2 [nM]"
H[Aib]EGS[αMeF]TSDV[αMeS]SK([PEG2′-PEG2′-γGlu-Palmitoyl])LEGEAA[αMeK]EFIK([PEG2′-PEG2′-γGlu-Palmitoyl])WVVEGG-NH2 [SEQ ID NO: 265],21.6,21.6
H[Aib]EGS[αMeF]TSDV[αMeS]SK([PEG2′-PEG2′-γGlu-Palmitoyl])LEGEAA[αMeK]E[αMeF]IAK([PEG2′-PEG2′-γGlu-Palmitoyl])VVEGG-NH2 [SEQ ID NO: 409],21.5,21.5
H[Aib]EGS[αMeF]TSDV[αMeS]SYK([PEG2′-PEG2′-γGlu-Lauroyl])EGEAA[αMeK]EFIAK([PEG2′-PEG2′-γGlu-Lauroyl])VVEGG-NH2 [SEQ ID NO: 269],22.8,22.8

# More lines, now with the values ahead:
"Primary assay EC50 (cAMP), n1 [nM]","Primary assay EC50 (cAMP), n2 [nM]",Binder
22.6,22.6,H[Aib]EGS[αMeF]TSDV[αMeS]SK([PEG2′-PEG2′-γGlu-Lauroyl])LEGEAA[αMeK]EFIAWK([PEG2′-PEG2′-γGlu-Lauroyl])VEGG-NH2 [SEQ ID NO: 264]
22.2,22.2,H[Aib]EGS[αMeF]TSDV[αMeS]SYK([PEG2′-PEG2′-γGlu-Lauroyl])EGEAA[αMeK]EFIK([PEG2′-PEG2′-γGlu-Lauroyl])WVVEGG-NH2 [SEQ ID NO: 268]

# Biological target: T2, GLP-1R in the INS1e assay
# Assay: cell-based or functional assay
Binder,INS1e assay EC50 (cAMP) Mean [pM],INS1e assay EC50 (cAMP) n1 [pM],INS1e assay EC50 (cAMP) n2 [nM]
H[Aib]EGS[αMeF]TSDV[αMeS]SK([PEG2′-PEG2′-γGlu-Palmitoyl])LEGEAA[αMeK]EFIK([PEG2′-PEG2′-γGlu-Palmitoyl])WVVEGG-NH2 [SEQ ID NO: 265],8770,12200,5.34
H[Aib]EGS[αMeF]TSDV[αMeS]SK([PEG2′-PEG2′-γGlu-Palmitoyl])LEGEAA[αMeK]E[αMeF]IAK([PEG2′-PEG2′-γGlu-Palmitoyl])VVEGG-NH2 [SEQ ID NO: 409],216,183,0.249
H[Aib]EGS[αMeF]TSDV[αMeS]SYK([PEG2′-PEG2′-γGlu-Lauroyl])EGEAA[αMeK]EFIAK([PEG2′-PEG2′-γGlu-Lauroyl])VVEGG-NH2 [SEQ ID NO: 269],212,243,0.181

# The next lines start with the values.
INS1e assay EC50 (cAMP) Mean [pM],INS1e assay EC50 (cAMP) n1 [pM],INS1e assay EC50 (cAMP) n2 [nM],Binder
1030,963,1.1,H[Aib]EGS[αMeF]TSDV[αMeS]SK([PEG2′-PEG2′-γGlu-Lauroyl])LEGEAA[αMeK]EFIAWK([PEG2′-PEG2′-γGlu-Lauroyl])VEGG-NH2 [SEQ ID NO: 264]
1160,1090,1.23,H[Aib]EGS[αMeF]TSDV[αMeS]SYK([PEG2′-PEG2′-γGlu-Lauroyl])EGEAA[αMeK]EFIK([PEG2′-PEG2′-γGlu-Lauroyl])WVVEGG-NH2 [SEQ ID NO: 268]

# Biological target: T3, glucose-dependent insulinotropic …
# Assay: cell-based or functional assay
"cAMP Primary assay EC50, n1 [nM]","cAMP Primary assay EC50, n2 [nM]",Binder
19.7,19.7,H[Aib]EGS[αMeF]TSDV[αMeS]SYK([PEG2′-PEG2′-γGlu-Lauroyl])EGEAA[αMeK]K([PEG2′-PEG2′-γGlu-Lauroyl])FIK([PEG2′-PEG2′-γGlu-Lauroyl])FVVEGG-NH2 [SEQ ID NO: 454]
19.9,19.9,H[Aib]EGS[αMeF]TSDV[αMeS]SK([PEG2′-PEG2′-γGlu-Lauroyl])LEGEAA[αMeK]K([PEG2′-PEG2′-γGlu-Lauroyl])FIK([PEG2′-PEG2′-γGlu-Lauroyl])FVVEGG-NH2 [SEQ ID NO: 450]

# Biological target: glucagon receptor (GCGR), primary cAMP assay cell line (human, UniProt P47871 26-477)
# Assay: cell-based or functional assay
# Sequence of glucagon receptor (GCGR), primary cAMP assay cell line (P47871 26-477): as above
"cAMP Primary assay EC50, n1 [nM]","cAMP Primary assay EC50, n2 [nM]",Binder
19.7,19.7,H[Aib]EGS[αMeF]TSDV[αMeS]SYK([PEG2′-PEG2′-γGlu-Lauroyl])EGEAA[αMeK]K([PEG2′-PEG2′-γGlu-Lauroyl])FIK([PEG2′-PEG2′-γGlu-Lauroyl])FVVEGG-NH2 [SEQ ID NO: 454]
19.9,19.9,H[Aib]EGS[αMeF]TSDV[αMeS]SK([PEG2′-PEG2′-γGlu-Lauroyl])LEGEAA[αMeK]K([PEG2′-PEG2′-γGlu-Lauroyl])FIK([PEG2′-PEG2′-γGlu-Lauroyl])FVVEGG-NH2 [SEQ ID NO: 450]

# Biological target: GLP-1 receptor (GLP-1R), primary cAMP assay cell line (human, UniProt P43220 24-463)
# Assay: cell-based or functional assay
"cAMP Primary assay EC50, Mean pM GLP-1R [pM]","cAMP Primary assay EC50, n1 [pM]","cAMP Primary assay EC50, n2 [pM]",Binder
43.7,22.1,65.2,H[Aib]EGS[αMeF]TSDV[αMeS]SYK([PEG2′-PEG2′-γGlu-Lauroyl])EGEAA[αMeK]K([PEG2′-PEG2′-γGlu-Lauroyl])FIK([PEG2′-PEG2′-γGlu-Lauroyl])FVVEGG-NH2 [SEQ ID NO: 454]
49,28,70,H[Aib]EGS[αMeF]TSDV[αMeS]SK([PEG2′-PEG2′-γGlu-Lauroyl])LEGEAA[αMeK]K([PEG2′-PEG2′-γGlu-Lauroyl])FIK([PEG2′-PEG2′-γGlu-Lauroyl])FVVEGG-NH2 [SEQ ID NO: 450]

# Biological target: T4, GLP-1R in the INS1e assay
# Assay: cell-based or functional assay
"cAMP INS1e assay EC50, Mean pM GLP-1R [pM]","cAMP INS1e assay EC50, n1 [nM]","cAMP INS1e assay EC50, n2 [nM]",Binder
5540,4.1,6.99,H[Aib]EGS[αMeF]TSDV[αMeS]SYK([PEG2′-PEG2′-γGlu-Lauroyl])EGEAA[αMeK]K([PEG2′-PEG2′-γGlu-Lauroyl])FIK([PEG2′-PEG2′-γGlu-Lauroyl])FVVEGG-NH2 [SEQ ID NO: 454]
6810,6.38,7.24,H[Aib]EGS[αMeF]TSDV[αMeS]SK([PEG2′-PEG2′-γGlu-Lauroyl])LEGEAA[αMeK]K([PEG2′-PEG2′-γGlu-Lauroyl])FIK([PEG2′-PEG2′-γGlu-Lauroyl])FVVEGG-NH2 [SEQ ID NO: 450]
